According to patent publication US8486893B2, “Treatment of conditions involving demyelination” (Biogen Idec MA Inc., priority 2004, dated 2013):
Positions of bridges follow the written chain, without caps; N, C: chain ends. No end group written: not given here. *: point of attachment. Biotin = O=C1N[C@H]2[C@H](CS[C@H]2CCCCC(=O)*)N1

How the values were obtained:
Assay type in all cases: cell-based, rat
[1] = tested on: co-cultures of dorsal root ganglion (DRG) neurons and oligodendrocytes; test: In vitro myelination in co-cultures of DRG neurons and oligodendrocytes; conditions: for expression of MBP by western blot: 4-week-old treated cocultures, 10 μg/ml for Fc fusions; for number of myelinating MBP+ cells compared with controls: cocultures infected with lentivirus for two weeks, FIG. 10E; for MBP in cultures by western blot: cocultures infected with lentivirus, FIG. 10F
Description: The role of Sp35 in myelination was examined in vitro by treating co-cultures of dorsal root ganglion (DRG) neurons and oligodendrocytes with Sp35-Fc and testing for myelination by immunohistochemistry and electron microscopy. For these studies, it was necessary to first generate primary cultures of DRG neurons and of oligodendrocytes.
Female Long Evans rat E14-E17 embryonic dorsal root ganglia were cultured as described by Plant et al., J. Neurosci. 22:6083-91 (2002). Dissected DRGs were plated on poly-L-lysine-coated cover slips (100 μg/ml) for 2 weeks in the presence of fluorodeoxyuridine for days 2-6 and days 8-11 in NLA medium containing 1× B27, 100 ng/ml NGF (Invitrogen).
A2B5^+ oligodendrocytes were prepared as described in Example 1, and were harvested by trypsinization.
For coculture studies, A2B5^+ oligodendrocytes were added to DRG neuron drop cultures in the presence or absence of 10 μg/ml Sp35-Fc. The culture medium (Neurobasal medium supplemented with B27 and 100 ng/ml NGF) was changed, and fresh Sp35-Fc was added to the cells every 3 d. To identify changes in myelination, 2-week-old cultures were stained by immunohistochemical staining (“IHC”) for neurofilaments with anti-βIII-tubulin antibody to identify axons, or anti-MBP antibody to identify oligodendrocytes., and 4-week-old cultures were subjected to SDS-PAGE followed by western blot analyses to quantify the MBP. In selected examples, cells were fixed for electron microscopy studies by adding 2.5% gluteraldehyde directly onto the cover slips. Myelinated axons in the 2-week-old cultures were quantified by counting the number of myelinated internode bundles that were derived from single MBP^+ oligodendrocytes. Samples were analyzed in duplicate. Error bars denote individual determinations. P values in all studies were determined using a one-way analysis of variance.
Several peptides containing portions of the Ig domain of Sp35 were examined in vitro, by treating co-cultures of dorsal root ganglion (DRG) neurons and oligodendrocytes with Sp35 Ig peptides and testing for myelination as described in Example 5.
For co-culture studies, A2B5^+ oligodendrocytes were added to DRG neuron drop cultures in the presence or absence of 10 μg/ml Sp35-Ig-Fc (Sp35 amino acids 417-493 fused to Fc). The culture medium (Neurobasal medium supplemented with B27 and 100 ng/ml NGF) was changed, and fresh Sp35-Ig-Fc was added to the cells every 3 d. To identify changes in myelination, 2-week-old cultures were stained by immunohistochemical staining (“IHC”) for neurofilaments with anti-βIII-tubulin antibody to identify axons, or anti-MBP antibody to identify oligodendrocytes and 4-week-old cultures were subjected to SDS-PAGE followed by western blot analyses to quantify the MBP.
We performed experiments to address the relative contributions to the myelination process of Sp35 in DRG neurons as compared to oligodendrocytes. We infected DRG neurons, oligodendrocytes and co-cultures (prepared as described in Example 5) with the FL-Sp35 and DN-Sp35 lentiviral vectors described in Example 1 and performed immunohistochemical straining for myelinated MBP cells after two weeks. A 2-fold increase in MBP levels in co-cultures where both cells express DN-Sp35 and a 2-fold decrease in MBP levels in co-cultures where both cells express FL-Sp35 was observed (FIG. 10G).

Fyn kinase = test: Fyn expression and phosphorylation in oligodendrocytes by western blotting; conditions: lentivirus-infected oligodendrocytes, FIG. 9B
Description: The activity of RhoA GTPase is regulated by Fyn kinase See Liang, X, et al., J. Neurosci. 24:7140-7149 (2004). Increased Fyn expression and phosphorylation correlate with oligodendrocyte differentiation. Id. See also Osterhout, D. J., et al., J. Cell Biol. 145:1209-1218 (1999). To test if Sp35 antagonists affect Fyn function, Fyn expression and phosphorylation were measured directly by western blotting.

Oligodendrocytes = test: Oligodendrocyte differentiation after infection with FL-Sp35 or DN-Sp35 lentivirus; conditions: lentivirus at 2 MOI per cell
Description: Enriched populations of oligodendrocytes were grown from female Long Evans P2 rats as described by Conn, Meth. Neurosci. 2:1-4 (Academic Press; 1990) with modifications as follows. Briefly, the forebrain was dissected and placed in Hank's buffered salt solution (HBSS; Invitrogen). The tissue was cut into 1-mm fragments and was incubated at 37° C. for 15 min in 0.01% trypsin and 10 μg/ml DNase. Dissociated cells were plated on poly-L-lysine-coated T75 tissue culture flasks and were grown at 37° C. for 10 d in DMEM medium with 20% fetal calf serum (Invitrogen). Oligodendrocyte precursors (A2B5+) were collected by shaking the flask overnight at 200 rpm at 37° C., resulting in a 95% pure population. Cultures were maintained in high-glucose Dulbecco's modified Eagle's medium (DMEM) with FGF/PDGF (10 ng/ml; Peprotech) for 1 week. Removal of FGF/PDGF allowed A2B5^+ cells to differentiate into O4^+ premyelinating oligodendrocytes after 3-7 d, and to differentiate into O4^+ and MBP^+ mature oligodendrocytes after 7-10 d. These differentiation states are readily apparent from changes in morphology: A2B5^+ cells are bipolar in shape, O4^+ premyelinating oligodendrocytes have longer and more branched processes and MBP^+ mature oligodendrocytes contain myelin sheet structures between processes.
We constructed lentiviral vectors that express wild-type and a dominant-negative form of Sp35. […]

[2] = co-cultures where both cell types express the construct, two weeks, FIG. 10G

Biotin-GSGCLSPEKVC (SEQ ID NO:65; cysteine pairing not given here) [reference compound]
expression of MBP by western blot [1]: no increase in MBP

Biotin-GSGCLSPRKHC (SEQ ID NO:63; cysteine pairing not given here)
expression of MBP by western blot [1]: increased expression of MBP

Ac-CLSPEKVC (SEQ ID NO:67) (disulfide 1-8 (inferred); listed as Homo sapiens) [cyclic control peptide, reference compound]
expression of MBP by western blot [1]: no increase in MBP

Ac-CLSPRKHC (SEQ ID NO:66) (Ac-CLSPRKHC-NH2; disulfide 1-8 (inferred); listed as Homo sapiens) [cyclized LSPRKH peptide with terminal cysteines, acetyl at N-terminus and NH2 at C-terminus]
expression of MBP by western blot [1]: increased expression of MBP

Biotin-GSGCKHSPLRC (SEQ ID NO:64; cysteine pairing not given here) [reference compound]
expression of MBP by western blot [1]: no increase in MBP

B1: Sp35-Ig-Fc: Sp35 amino acids 417-493 fused to Fc (protein)
chain: RARIRDRKAQQVFVDEGHTVQFVCRADGDPPPAILWLSPRKHLVSAKSNGRLTVFPDGTLEVRYAQVQDNGTYLCIA
modifications: left off: a dimerising Fc or GST
notes: Sp35 amino acids 417-493 fused to Fc
expression of MBP by western blot [1]: increased
increase in MBP protein compared with Sp35-Fc ([1]; western blot, FIG. 15): comparable

B2: DN-Sp35: dominant negative Sp35, amino acid residues 34-581 of SEQ ID NO:2, expressed from lentiviral vector (protein, listed as Homo sapiens)
chain: TGCPPRCECSAQDRAVLCHRKRFVAVPEGIPTETRLLDLGKNRIKTLNQDEFASFPHLEELELNENIVSAVEPGAFNNLFNLRTLGLRSNRLKLIPLGVFTGLSNLTKLDISENKIVILLDYMFQDLYNLKSLEVGDNDLVYISHRAFSGLNSLEQLTLEKCNLTSIPTEALSHLHGLIVLRLRHLNINAIRDYSFKRLYRLKVLEISHWPYLDTMTPNCLYGLNLTSLSITHCNLTAVPYLAVRHLVYLRFLNLSYNPISTIEGSMLHELLRLQEIQLVGGQLAVVEPYAFRGLNYLRVLNVSGNQLTTLEESVFHSVGNLETLILDSNPLACDCRLLWVFRRRWRLNFNRQQPTCATPEFVQGKEFKDFPDVLLPNYFTCRRARIRDRKAQQVFVDEGHTVQFVCRADGDPPPAILWLSPRKHLVSAKSNGRLTVFPDGTLEVRYAQVQDNGTYLCIAANAGGNDSMPAHLHVRSYSPDWPHQPNKTFAFISNQPGEGEANSTRATVPFPFDIKTLIIATTMGFISFLGVVLFCLVLLFLWSRGKG
increase in MBP levels [1, 2]: 2 fold
number of myelinating MBP+ cells compared with controls [1]: increased the total number of myelinating MBP^+ cells five- to tenfold
MBP in cultures by western blot [1]: tenfold increase
Fyn phosphorylation (Fyn kinase): twofold increases
Fyn protein expression (Fyn kinase): twofold increases
number of mature oligodendrocytes compared with the control (Oligodendrocytes): increase in the number of mature oligodendrocytes

B3: FL-Sp35: mouse full length Sp35, amino acid residues 34-614 of SEQ ID NO:2, expressed from lentiviral vector (protein, listed as Homo sapiens)
chain: TGCPPRCECSAQDRAVLCHRKRFVAVPEGIPTETRLLDLGKNRIKTLNQDEFASFPHLEELELNENIVSAVEPGAFNNLFNLRTLGLRSNRLKLIPLGVFTGLSNLTKLDISENKIVILLDYMFQDLYNLKSLEVGDNDLVYISHRAFSGLNSLEQLTLEKCNLTSIPTEALSHLHGLIVLRLRHLNINAIRDYSFKRLYRLKVLEISHWPYLDTMTPNCLYGLNLTSLSITHCNLTAVPYLAVRHLVYLRFLNLSYNPISTIEGSMLHELLRLQEIQLVGGQLAVVEPYAFRGLNYLRVLNVSGNQLTTLEESVFHSVGNLETLILDSNPLACDCRLLWVFRRRWRLNFNRQQPTCATPEFVQGKEFKDFPDVLLPNYFTCRRARIRDRKAQQVFVDEGHTVQFVCRADGDPPPAILWLSPRKHLVSAKSNGRLTVFPDGTLEVRYAQVQDNGTYLCIAANAGGNDSMPAHLHVRSYSPDWPHQPNKTFAFISNQPGEGEANSTRATVPFPFDIKTLIIATTMGFISFLGVVLFCLVLLFLWSRGKGNTKHNIEIEYVPRKSDAGISSADAPRKFNMKMI
decrease in MBP levels [1, 2]: 2 fold
number of myelinating MBP+ cells compared with controls [1]: decreased the number of myelinating MBP^+ cells twofold
MBP in cultures by western blot [1]: twofold reduction
basal levels of myelination in comparison to control (empty vector) ([1]; overexpression in either or both cell types): significantly descreased
Fyn phosphorylation (Fyn kinase): reduced by twofold
Fyn protein expression (Fyn kinase): reduced by twofold
number of mature oligodendrocytes compared with the control (Oligodendrocytes): reduction in the number of mature oligodendrocytes
